Entries after “also recorded” stand apart in the source; their conditions may differ.
Columns and labels:
Format in all cases: biochemical
bovine trypsin = molecular target: T1, bovine trypsin (Bos taurus, UniProt P00760); test: Trypsin assay (spectrophotometric, N-Benzoyl-L-arginine p-nitroanilide substrate); settings: for Inhibitory Activity Trypsin: inhibitor/protease ratio between about 10/1 and 50/1; for inhibition of trypsin (in words): text discussion of Table III
T1 sequence (P00760 24-246): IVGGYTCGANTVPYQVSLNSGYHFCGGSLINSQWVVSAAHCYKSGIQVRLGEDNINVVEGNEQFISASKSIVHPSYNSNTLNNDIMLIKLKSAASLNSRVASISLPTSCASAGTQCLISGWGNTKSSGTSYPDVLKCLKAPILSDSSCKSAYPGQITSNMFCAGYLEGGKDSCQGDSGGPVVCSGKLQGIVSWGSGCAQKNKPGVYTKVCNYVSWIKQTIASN
Experimental: (§1) The inhibitory activity of the polypeptides of the present invention can be easily assayed using in vitro assays. In these types of spectrophotometric assays the activity of the serine protease is measured toward an appropriate p-nitroanilide substrate in the presence and absence of the peptide inhibitor. The enzyme catalyzed hydrolysis of the peptide p-nitroanilide substrate produces p-nitroanaline which results in an increase in absorbance which is monitored in the range of 405 to 410 nm. The rate of increase in absorbance is a measure of the enzymatic activity and the decrease in this rate relative to a suitable control is used to ascertain inhibition. The general assay procedure and details of the particular assays employed in the examples are provided in the Appendix following the examples. It is also possible to test the polypeptides in a functionally oriented assay that emulates in vivo conditions. Such an inhibition assay for elastase is also described in the Appendix.
(§2) Generalized Protocol Spectrophotometric Assays:
(§3) (1) Pipette 100 μl of enzyme solution into a disposable polystyrene cuvette (1 cm optical path length).
(§4) (2) Add (1900-X) μl of bufferto the cuvette, where X is the volume of test solution in microliters that is added in the next step.
(§5) Add X μl of test solution to the cuvette, where X ranges from 0 μl for the control to a maximum of about 500 μl. Incubate the solution for a period of 1 to 5 minutes at ambient temperature.
(§6) (4) Add 100 μl of substrate solution to the cuvette. Mix the contents by covering the cuvette with a piece of paraffin film and repeatedly inverting for a period of 5 to 15 seconds.
(§7) (5) Record the change in absorbance for about 5 minutes at either 405 or 410 nm, depending on the assay, with a spectrophotometer equipped with a suitable recording device.
(§8) The percent inhibition is calculated from the formula [formula] where (ΔA/min) is the initial rate of absorbance change.
(§9) (7) For more accurate quantitative determinations temperature control of the cuvette holders and the reagent solutions can be instituted.
(§10) (8) The test solution can be crude oxidized peptide prepared as described above, fractions from a chromatographic separation or purified polypeptides.
(A) Buffer Solution - Triethanolamine buffer consisting of 200 mM triethanolamine, 20 mM CaCl2, pH 7.8
(B) Substrate solution - Dissolve 50 mg of N-Benzoyl-L-arginine p-nitroanilide in 50 ml of water. Sonicate for 5 to 10 minutes to completely dissolve the solid material.
(C) Enzyme solution - Dissolve 1 mg of bovine trypsin in 10 ml of 0.001N HCl stored on ice during the assay.
(§11) (D) Test Solution - See general protocol, number 8.
(§12) Procedure: Use the above solutions in the general protocol described above.

Human Sputum Elastase = molecular target: T2, Human Sputum Elastase (Homo sapiens, UniProt P08246); test: Elastase assay (spectrophotometric, p-nitroanilide substrate); settings: for Inhibitory Activity Elastase: inhibitor/protease ratio between about 10/1 and 50/1; for inhibition of human elastase (in words): text discussion of Table III
T2 construct: Human Sputum Elastase, product No. SE-563 EPC, Inc., Pacific, Mo; USA, Lot 85701; purchased EPC, Inc., Pacific, Mo; USA SE-563; host or cells: human sputum
T2 sequence (P08246 30-267): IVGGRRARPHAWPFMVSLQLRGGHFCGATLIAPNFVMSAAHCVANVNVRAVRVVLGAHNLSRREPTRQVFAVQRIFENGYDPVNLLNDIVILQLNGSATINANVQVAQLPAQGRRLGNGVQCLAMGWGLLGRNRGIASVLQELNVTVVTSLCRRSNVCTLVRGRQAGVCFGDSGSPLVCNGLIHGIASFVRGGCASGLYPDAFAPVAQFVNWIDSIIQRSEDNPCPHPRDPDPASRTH
Experimental: as §1, §2, §3, §4, §5, §6, §7, §8, §9, §10
(A) Buffer Solution - Tris-NaCl buffer consisting of 0.1M Tris-HCl pH 7.5 at 25° C. containing 0.5M NaCl and 0.01% (w/v) NaNs.
(B) Substrate Solution - Dissolve 45.5 mg of N-succinyl-L-alanyl-L-alanyl-L-alanine p-nitroanilide in 1 ml of 1-methyl-2-pyrrolidinone. Add 32 ml of Tris-NaCl buffer.
(C) Enzyme Solution - Human Sputum Elastase, product No. SE-563 EPC, Inc., Pacific, Mo. USA, Lot 85701. Dissolve 1 mg in 1 ml of Tris-NaCl buffer. Store on ice or at 4° C.
as §11, §12
(1) Buffer Solution - Tris-NaCl buffer -see Method 1.
(2) Substrate Solution - Dissolve 50 mg of 3-carbomethoxypropionyl-L-alanyl-L-alanyl-L-[…]-L-valine p-nitroanilidein 1 ml of 1-methyl-2-pyrrolidinone. Add 32 ml of Tris-NaCl buffer.
(3) Enzyme Solution - Human sputum elastase, product No. SE-563, EPC, inc. Pacific, Mo. USA, Lot 85071. Prepare a sample at a concentration of 0.01 mg per ml of Tris-NaCl buffer. Store on ice.
(4) Test Solution - general protocol, number 8.
Procedure: Use the above solutions in the general protocol.
(1) Porcine pancreatic elastase may be substituted for human elastase when it is desired to test for an inhibitor of the former.
(2) The activity of an elastase preparation can be calculated as [formula]
(3) The Tris-NaCl buffer also can be pH 8.0 with 0.03% sodium azide. Results should be compared at a single pH.

Human Sputum Cathepsin G = molecular target: T3, Human Sputum Cathepsin G (Homo sapiens, UniProt P08311); test: Cathepsin G assay (spectrophotometric, p-nitroanilide substrate); settings: for Inhibitory Activity Cathepsin G: inhibitor/protease ratio between about 10/1 and 50/1; for inhibition of cathepsin G (in words): text discussion of Table III
T3 construct: Human Sputum Cathepsin G (Product No. SG-45, EPC, Inc., Pacific, Mo.); purchased EPC, Inc., Pacific, Mo; SG-45; host or cells: human sputum
T3 sequence (P08311 21-255): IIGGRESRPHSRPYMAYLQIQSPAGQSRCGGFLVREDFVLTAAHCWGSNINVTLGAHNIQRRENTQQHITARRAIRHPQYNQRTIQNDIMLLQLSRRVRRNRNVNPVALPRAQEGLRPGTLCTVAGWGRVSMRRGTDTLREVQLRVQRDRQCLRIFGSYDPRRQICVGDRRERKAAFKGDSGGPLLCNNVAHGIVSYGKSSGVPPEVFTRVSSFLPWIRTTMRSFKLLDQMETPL
Experimental: as §1, §2, §3, §4, §5, §6, §7, §8, §9, §10
(A) Buffer Solution - Tris-NaCl buffer consisting of 0.1M Tris-HCl, pH 8.0 containing 0.5M NaCl and 0.03% sodium azide.
(B) Substrate solution - Dissolve 50 mg of N-succinyl-L-alanyl-L-alanyl-L-prolyl-L-phenylalanine p-nitroanilide in 1 ml of 1-methyl-2-pyrrolidinone and dilute to 50 ml with Tris-NaCl buffer.
(C) Enzyme Solution - Human Sputum Cathepsin G (Product No. SG-45, EPC, Inc., Pacific, Mo.). Dissolve 1 mg of protein per 1 ml of Tris-NaCl buffer. Store on ice or at 4° C.
(D) Test Solutions - See the general protocol, number 8.
Procedure: Use the above solution in the general protocol described above. […]

bovine chymotrypsin = bovine chymotrypsin (Bos taurus, UniProt P00766); test: Chymotrypsin assay (spectrophotometric, p-nitroanilide substrate); settings: for Inhibitory Activity Chymotrypsin: inhibitor/protease ratio between about 10/1 and 50/1; for inhibition of chymotrypsin (in words): text discussion of Table III
Experimental: as §1, §2, §3, §4, §5, §6, §7, §8, §9, §10
(A) Buffer solution - triethanolamine buffer- See trypsin assay.
(B) Substrate Solution - Dissolve 25 mg of 3-carbomethoxypropionyl-L-arginyl-L-prolyl-L-tyrosine p-nitroanilide (Product No. S-2586, KabiVitrum AB, Stockholm, Sweden) in 23.6 ml of water
(C) Enzyme solution - Dissolve 1 mg of bovine chymotrypsin in 4 ml of 0.001N HCl. Prepare the final dilution by combining 0.1 ml of the stock chymotrypsin solution and 10 ml of 0.001N HCl. Store on ice or at 4° C.
Procedure: Use the above solutions in the general protocol
(2) See note 1 of the cathepsin G assay.
(3) 0.1M Tris-HCl, pH 7.8, 20 mM CaCl2, 0.05% triton X-100 can be substituted for the triethanolamine buffer.

| Substance | Inhibitory Activity Trypsin (bovine trypsin) | Inhibitory Activity Elastase (Human Sputum Elastase) | inhibition of human elastase (in words) (Human Sputum Elastase) | Inhibitory Activity Cathepsin G (Human Sputum Cathepsin G) | Inhibitory Activity Chymotrypsin (bovine chymotrypsin) | inhibition of trypsin (in words) (bovine trypsin) | inhibition of cathepsin G (in words) (Human Sputum Cathepsin G) | inhibition of chymotrypsin (in words) (bovine chymotrypsin) |
| --- | --- | --- | --- | --- | --- | --- | --- | --- |
| RVCGVILMKCKKDSDCLAECVCLEHGYCG (RVCGVILMKCKKDSDCLAECVCLEHGYCG) [Peptide 46] | - (Represents less than 10% inhibition) | ++ (Represents greater than 50% inhibition) | continue to be inhibitors of human elastase | - (Represents less than 10% inhibition) | - (Represents less than 10% inhibition) |  |  |  |
| R V C Hyp VILMKCKKDSDCLAECVCLEHGYCG [Peptide 47] | - (Represents less than 10% inhibition) | ++ (Represents greater than 50% inhibition) | continue to be inhibitors of human elastase | - (Represents less than 10% inhibition) | - (Represents less than 10% inhibition) |  |  |  |
| RVCPAILMKCKKDSDCLAECVCLEHGYCG (RVCPAILMKCKKDSDCLAECVCLEHGYCG) [Peptide 36] | + (Represents between 10% and 50% inhibition) | ++ (Represents greater than 50% inhibition) | continue to be inhibitors of human elastase | + (Represents between 10% and 50% inhibition) | ++ (Represents greater than 50% inhibition) |  |  |  |
| RVCPFILMKCKKDSDCLAECVCLEHGYCG (RVCPFILMKCKKDSDCLAECVCLEHGYCG) [Peptide 15] | ++ (Represents greater than 50% inhibition) | ++ (Represents greater than 50% inhibition) | inhibited | ++ (Represents greater than 50% inhibition) | ++ (Represents greater than 50% inhibition) | inhibited | Inhibition of chymotrypsin and cathepsin G was observed | Inhibition of chymotrypsin and cathepsin G was observed |
| RVCPGILMKCKKDSDCLAECVCLEHGYCG (RVCPGILMKCKKDSDCLAECVCLEHGYCG) [Peptide 51] | - (Represents less than 10% inhibition) | ++ (Represents greater than 50% inhibition) | is a human elastase inhibitor; also recorded: less effective inhibitor of elastase than peptides 1 or 8 | - (Represents less than 10% inhibition) | - (Represents less than 10% inhibition) |  |  |  |
| RVCPIILMKCKKDSDCLAECVCLEHGYCG (RVCPIILMKCKKDSDCLAECVCLEHGYCG) [Peptide 1] | - (Represents less than 10% inhibition) | ++ (Represents greater than 50% inhibition) |  | - (Represents less than 10% inhibition) | - (Represents less than 10% inhibition) |  |  |  |
| RVCPLILMKCKKDSDCLAECVCLEHGYCG (RVCPLILMKCKKDSDCLAECVCLEHGYCG) [Peptide 29] | ++ (Represents greater than 50% inhibition) | ++ (Represents greater than 50% inhibition) | continue to be inhibitors of human elastase | + (Represents between 10% and 50% inhibition) | ++ (Represents greater than 50% inhibition) |  |  |  |
| RVCPMILMKCKKDSDCLAECVCLEHGYCG (RVCPMILMKCKKDSDCLAECVCLEHGYCG) [Peptide 22] | ++ (Represents greater than 50% inhibition) | ++ (Represents greater than 50% inhibition) | inhibits | + (Represents between 10% and 50% inhibition) | ++ (Represents greater than 50% inhibition) | inhibits | inhibits | inhibits |
